For assay [1], the target named is T1, Human CXCL10-His (human, UniProt P02778 22-98).
T1 construct: also called hCXCL10; recombinant human CXCL10 protein; not shown: His tag (named CXCL10-His)
T1 sequence (looked up): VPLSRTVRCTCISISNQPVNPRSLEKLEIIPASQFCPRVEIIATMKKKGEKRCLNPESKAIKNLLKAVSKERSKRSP
Briefly: ELISA, IgG titrated from 50 nM on coated CXCL10. The protocol: Specifically, ELISA was carried out by coating a recombinant human CXCL10 protein with a coating buffer at 100 ng per well in a 96-well immunoplate at 4° C. for 16 hours, and a reaction in each well was blocked with skim milk (4%) dissolved in PBS. 0.2 ml of PBS-Tween20 (0.05%) was added to wash each well, monoclonal antibodies were sequentially diluted from 50 nM by ½, added at 100 μl each to an antigen-coated plate, and allowed to be reacted at room temperature for 2 hours. 0.2 ml of PBS-Tween20 (0.05%) was added again to wash each well three times, and a secondary antibody, anti-human Fc-HRP, was diluted at 1:4000 and allowed to be reacted at room temperature for 50 minutes. The plate was washed with 0.2 ml of PBS-Tween20 (0.05%), and a substrate solution prepared by adding an OPD table to a PC buffer was added to the plate at 100 μl per well to allow color development for 5 minutes, followed by measuring an absorbance at 490 nm using a spectrophotometer. The ELISA result was analyzed using a Graphpad prism ver. 4 software (CA 92037: Graphpad Software Inc., USA).

Assay [2] has as its target T1, Human CXCL10-His. The experiment in a line: phage ELISA.
In assay [3] the target is T1, Human CXCL10-His. The experiment in a line: phage ELISA, CXCL10/a-myc. As to the method:
Two types of antigens such as CXCL10 and α-myc were put into a 96-well immunoplate at 100 ng per well and coated with a coating buffer at 4° C. for 16 hours, and wells were blocked with skim milk (4%) dissolved in PBS. Each well was washed with 0.2 ml of PBS-Tween20 (0.05%), and the monoclonal scFv-phages obtained by the third panning (each 100 scFv-phage) were added at 100 μl per well, and allowed to be reacted at room temperature for 2 hours. Each well was washed again with 0.2 ml of PBS-Tween20 (0.05%) four times, and a secondary antibody, anti-M13-HRP, was diluted at 1/2000 and allowed to be reacted at room temperature for 1 hour. Each well was washed with 0.2 ml of PBS-Tween20 (0.05%) and allowed to develop a color to measure an absorbance at 490 nm.
For orientation: In an ELISA, binding on a coated surface is turned into a signal by an enzyme label.

Assay [4] addresses T2, His (control coat of Table 2).
T2 construct: Not explained in the text
The experiment in a line: phage ELISA.

Assay [5] addresses T3, α-myc (anti-myc antibody coated as second antigen).
T3 construct: Coated at 100 ng per well beside CXCL10 in the phage ELISA; in effect a control of scFv display; also called a-myc
The experiment in a line: phage ELISA.

Positions count from the first letter of the chain named.

B1: anti-CXCL10 antibody 12D (whole IgG) (antibody, V domains shown)
VH: QVQLVQSGGGVVQPGRSLRLSCVASAFTFSRYGMHWVRQAPGKGLEWVALISYDGSSEYYADSVKGRFNISRDNSKNTVYLQMNSLRAEDTAVYYCVKDGLAAKLGHWGQGTLVTVSS
VL: QAPSLSVSPGQTANIICSGDNLRTKYVSWYQQKPGQSPLLVIYQDTRRPSGIPARFSGSNSGNTATLTISGTQTERESTYYCMTWDVDTTSMIFGGGTKLTVLG
notes: Whole-form IgG
As for B1, the equilibrium dissociation constant (Kd) with Human CXCL10-His [1] came to 4.7 pM.

B2: scFv-phage clone 9E (scFv)
chain: QVQLVESGGGVVQPGRSLRLSCAASGFTFSSYGMHWVRQAPGKGLEWVAVISYDGNNKYYVDSVKGRFTISRDNSKNTLYLQMNSLRSEDTAVYYCARDSGSYLDWYFDLWGRGTLVTVSSQPPSVSVAPGKTARIACGGGNIGDKSVHWYQQKPGQAPVLVIFYDSDRPSGIPKRLSGSNSGNTATLTISRVEAGDEGDYYCQVWDSSSDRPVFGGGTKLTVLG
In the assay with Human CXCL10-His [2], B2 gave an OD490 of 2.96. Moreover, the Ratio with Human CXCL10-His [3] was determined as 1.48.

B3: scFv-phage clone 12D (scFv)
chain: QVQLVQSGGGVVQPGRSLRLSCVASAFTFSRYGMHWVRQAPGKGLEWVALISYDGSSEYYADSVKGRFNISRDNSKNTVYLQMNSLRAEDTAVYYCVKDGLAAKLGHWGQGTLVTVSSQAPSLSVSPGQTANIICSGDNLRTKYVSWYQQKPGQSPLLVIYQDTRRPSGIPARFSGSNSGNTATLTISGTQTERESTYYCMTWDVDTTSMIFGGGTKLTVLG
For B3, the OD490 in the assay with Human CXCL10-His [2] was found to be 3.02. Further, the Ratio with Human CXCL10-His [3] worked out at 3.4.

B4: anti-CXCL10 antibody 9E (whole IgG) (antibody, V domains shown)
VH: QVQLVESGGGVVQPGRSLRLSCAASGFTFSSYGMHWVRQAPGKGLEWVAVISYDGNNKYYVDSVKGRFTISRDNSKNTLYLQMNSLRSEDTAVYYCARDSGSYLDWYFDLWGRGTLVTVSS
VL: QPPSVSVAPGKTARIACGGGNIGDKSVHWYQQKPGQAPVLVIFYDSDRPSGIPKRLSGSNSGNTATLTISRVEAGDEGDYYCQVWDSSSDRPVFGGGTKLTVLG
notes: Whole-form IgG
In the assay with Human CXCL10-His [1], B4 yielded an equilibrium dissociation constant (Kd) of 6.1 pM.

B5: anti-CXCL10 antibody 10E (whole IgG) (antibody, V domains shown)
VH: B4 VH with E6Q, S30N, L45P, N57S, V61A, N77T
VL: QPPSVSGAPGQRVTISCTGSRSNFGAGHDVHWYQQLPGTAPKLLIYGNNNRPSGVPDRFSGSKSGTSASLAITGLQAEDEADYYCQSYDSRLGVVFGGGTKLTVLG
notes: also called E10
In the assay with Human CXCL10-His [1], B5 gave an equilibrium dissociation constant (Kd) of 7 pM.

B6: scFv-phage clone 10D (scFv)
scFv: QVQLVQSGGGVVQPGRSLRLSCAASGFTFSSYGMHWVRQAPGKGLEWVAVISYDGSNKYYADSVKGRFTISRDNSKNTLYLQMNSLRSEDTAVYYCARDKRAAFDIWGQGKMVTVSSGLGGLGGGGSGGGGSGGSSGVGSSYELTQAPSLSVSPGQTANIICSGDNLRTKYVSWYQQKPGQSPLLVIYQDTRRPSGIPARFSGSNSGNTATLTISGTQTERESTYYCMTWDVDTTSMIFGGGTKLTVL
Turning to B6, the OD490 stood at 2.85 with Human CXCL10-His [2] and 0.178 in assay [4]. Also, the Ratio with Human CXCL10-His [3] was found to be 0.945.

B7: scFv-phage clone 10E (scFv)
scFv: QVQLVQSGGGVVQPGRSLRLSCAASGFTFNSYGMHWVRQAPGKGPEWVAVISYDGNSKYYADSVKGRFTISRDNSKTTLYLQMNSLRSEDTAVYYCARDSGSYLDWYFDLWGRGTLVTVSSGLGGLGGGGSGGGGSGGSSGVGSQFVLTQPPSVSGAPGQRVTISCTGSRSNFGAGHDVHWYQQLPGTAPKLLIYGNNNRPSGVPDRFSGSKSGTSASLAITGLQAEDEADYYCQSYDSRLGVVFGGGTKLTVL
notes: also called E10 scFv
Regarding B7, the OD490 with Human CXCL10-His [2] was 3.05; in assay [5], 0.307; in assay [4], 0.051. Besides, the Ratio in the assay with Human CXCL10-His [3] amounted to 9.95.

The term Kd denotes the equilibrium constant for the complex coming apart. Lower therefore signals higher affinity.

The values are drawn from patent US20160108118A1 (METABOLIC ENGINEERING LABORATORIES, published 2016).
